{
  "source": "patent US20080113011A1",
  "about": "“Compositions and methods for enhanced mucosal delivery of interferon beta” (Nastech Pharmaceutical Company Inc., priority 2002, published 2008)",
  "origin": "cited, not measured here",
  "details": "anesthetized rats",
  "note": "Read-outs that look alike come from different tables or passages of the source.",
  "data": [
    {"substance": "human growth hormone: human growth hormone given nasally to anesthetized rats with or without N-acetyl-L-cysteine", "values": [
      {"measurement": "nasal bioavailability", "setting": "with N-acetyl-L-cysteine (ACS)", "result": 12.2, "unit": "%"},
      {"measurement": "nasal bioavailability", "setting": "without N-acetyl-L-cysteine", "result": 7.5, "unit": "%"}
    ]}
  ]
}
